Results from patent publication US20250215397A1, “TWO-DIMENSIONAL CULTURE METHOD HAVING CLEAR CHEMICAL COMPOSITION FOR CULTURING THREE-DIMENSIONAL INTESTINAL ORGANOID-DERIVED INTESTINAL STEM CELL AGGREGATE” (KOREA RESEARCH INSTITUTE OF BIOSCIENCE AND BIOTECHNOLOGY, priority 2022, published 2025).

B1: WNT3A: human recombinant WNT3A, Wnt signaling pathway activator (protein, UniProt P56704 19-352, looked up)
Protein Wnt-3a: SYPIWWSLAVGPQYSSLGSQPILCASIPGLVPKQLRFCRNYVEIMPSVAEGIKIGIQECQHQFRGRRWNCTTVHDSLAIFGPVLDKATRESAFVHAIASAGVAFAVTRSCAEGTAAICGCSSRHQGSPGKGWKWGGCSEDIEFGGMVSREFADARENRPDARSAMNRHNNEAGRQAIASHMHLKCKCHGLSGSCEVKTCWWSQPDFRAIGDFLKDKYDSASEMVVEKHRESRGWVETLRPRYTYFKVPTERDLVYYEASPNFCEPNPETGSFGTRDRTCNVSSHGIDGCDLLCCGRGHNARAERRREKCRCVFHWCCYVSCQECTRVYDVHTCK
B2: Noggin: BMP inhibitor (protein, UniProt Q13253 28-232, looked up)
Noggin: QHYLHIRPAPSDNLPLVDLIEHPDPIFDPKEKDLNETLLRSLLGGHYDPGFMATSPPEDRPGGGGGAAGGAEDLAELDQLLRQRPSGAMPSEIKGLEFSEGLAQGKKQRLSKKLRRKLQMWLWSQTFCPVLYAWNDLGSRFWPRYVKVGSCFSKRSCSVPEGMVCKPSKSVHLTVLRWRCQRRGGQRCGWIPIQYPIISECKCSC
B3: R-spondin 1: WNT/R-spondin activator (protein, UniProt Q2MKA7 21-263, looked up)
R-spondin-1: SRGIKGKRQRRISAEGSQACAKGCELCSEVNGCLKCSPKLFILLERNDIRQVGVCLPSCPPGYFDARNPDMNKCIKCKIEHCEACFSHNFCTKCKEGLYLHKGRCYPACPEGSSAANGTMECSSPAQCEMSEWSPWGPCSKKQQLCGFRRGSEERTRRVLHAPVGDHAACSDTKETRRCTVRRVPCPEGQKRRKGGQGRRENANRNLARKESKEAGAGSRRRKGQQQQQQQGTVGPLTSAGPA

Assays:
Type in all cases: cell-based, human
[1] = test system: two-dimensional intestinal stem cell population; assay: Subculture of two-dimensional intestinal stem cells, engraftment / cell number; conditions: factor removed from culture medium, subculture; FIG. 12
Protocol: (§1) The three-dimensional intestinal organoids were isolated from a Matrigel dome and the remaining three-dimensional intestinal organoids were removed as much as possible by pipetting. The separated organoids were placed in 1 ml of 0.25% trypsin-EDTA (TE, Invitrogen) and incubated at 37° C. a water bath for about 5 minutes. Then, pipetting was performed less than five times so that the organoids were allowed to be isolated into single cells and small clumps, and a basal medium was added so that the total volume thereof was 10 ml. The cells fed into a centrifuge were placed on culture dishes coated with feeder cells or 1% of Matrigel (Corning). […]
(§2) The two-dimensional intestinal stem cell population was plated on a culture dish coated with 1% of Matrigel and then cultured for 2 to 7 days. […] After centrifugation, a medium was added to isolate the cells into single cells, and then the number of cells was measured using CountessIII cell counter (Thermo Scientific. Inc.).

[2] = test system: two-dimensional intestinal stem cell population; assay: Two-dimensional culture of intestinal stem cell population with removal of medium factors or inhibitor treatment; conditions: presence or absence of each factor; FIGS. 7-10
Protocol: as §1
To measure viability of a two-dimensional intestinal stem cell population cultured in a culture dish coated with 1% of Matrigel, a kit (LIVE/DEAD Viability/Cytotoxicity Kit, Invitrogen) capable of distinguishing and staining surviving cells and dead cells was used. […] The stained cells were observed through a fluorescence microscope (Olympus).
as §2, with “Inc.). […]” for “Inc.).”

[3] = test system: two-dimensional intestinal stem cell population; assay: Differentiation into 2.5-dimensional intestinal epithelial cells by air-liquid interface culture, medium factor screening; conditions: minimal medium composition; FIG. 24
Protocol: The intestinal stem cells grown to a density of 70 to 80% were washed 1-2 times with PBS, and then treated with TE in an incubator at 37° C. for 5 to 7 minutes. The intestinal stem cells isolated into single cells were collected and then diluted using the hIO medium. The cells were gathered by centrifugation, supernatant was removed, the intestinal stem cell culture medium was added thereto and sufficiently mixed, and then the number of cells was measured using Countess III cell counter (Thermo Scientific. Inc.). 2.5-3.5×10^5 cells were placed in an insert of 12-transwell plate (Corning) coated with 1% of Matrigel, and cultured in an incubator. After the cell density reached 100%, the culture medium of an upper layer was completely removed, and the culture medium of a lower layer was replaced with a differentiation medium (2 mM of L-glutamine, 1% of Penicillin-Streptomycin, and 15 mM of a HEPES buffer in Advanced DMEM F12) comprising 200 ng/ml of R-spondin 1 (R&D Systems), 100 ng/ml of EGF (R&D Systems), 2.5 µM of Prostaglandin E2 (Sigma-aldrich), 10 μM of SB202190 (Sigma-aldrich), and 10 mM of nicotinamide (Sigma-aldrich). Thereafter, once every 2 days, a surface of the upper layer was washed with the PBS or hIO medium, and the lower layer was replaced with a new differentiation medium and cultured for 8 to 12 days.

Molecule	need for long-term subculturing [1]	role of essential culture medium factor (stemness, proliferation, death) [2]	effect on differentiation into intestinal epithelial cells [3]
B1	required to more efficiently perform long-term culturing		
B2	required to more efficiently perform long-term culturing		
B3		modulate stemness and proliferation of two-dimensional intestinal stem cells	excellent effect on differentiation into intestinal epithelial cells
